The supplement of paper PMC10567573

B1: FUT8 (parent)
chain: YPSYKVREKIETVKYPTYPEAEK
B2: ZNF232 (parent)
chain: HSGEKPFICKECGKAYGWCSELIR

Variants of: B1
Test: protein stability index of a GFP-peptide fusion (GPS, HEK-293T) (PSI 1-6); higher = more stable
Settings: c terminus: native
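Further: lentivirally expressed fusions sorted by FACS into six bins by GFP to DsRed ratio, PSI derived from sequencing read proportions per bin multiplied by bin number.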

Protein stability index of substitutions, site by site:
P19: Q 3.85; N 4.11; R 3.71; V 2.98; E 4.67
K9: P 4.74; I 3.1; W 1.99; L 2.91
Y18: E 4.65; D 4.47; A 4.08; K 2.85
Y15: W 2.88; G 4.85; A 3.39
Y4: P 5.02; W 3.66; L 4.68
P2: Q 2.5; D 4.48; I 2.91; H 3.01
Y1: F 4.75; G 5.08; V 4.97
V6: M 3.86; Q 4.13; E 4.43
K23: I 4.41; R 1.82; E 1.93; P 3.88; V 3.4
P16: I 3.65; S 3.75; G 4.28; Y 3.62; D 4.4
T17: W 1.94; S 4.79; L 3.6; K 4.69; I 3.7
I10: W 2.87; L 4.28
A21: L 3.38; D 4.34; G 4.29; F 4.18
T12: G 4.01; P 4.49
E11: N 3.1; C 3.91; S 4.07; G 3.59; Y 3.44; M 3.46
K14: V 3.65; E 4.03; Y 3.43; W 1.68
E20: N 4.41; L 3.5; C 3.33
S3: H 4.39; Y 4.12; M 4.08
K5: M 4.45; D 4.72; Q 4.68; N 4.81; E 5.15
V13: I 4.29; E 4.79; R 4.34; C 4.12; P 4.24; A 4.7
R7: E 4.7; I 3.73; M 4.48; D 4.67
E22: S 4.04; Q 4.44; L 1.97; N 4.36; W 2.91; F 4.11
E8: H 4.28; W 2.13; C 2.62; V 1.75

Variants of: B2
Test: as above
Settings: c terminus: a fixed tail appended

Protein stability index: each site, then its substitutions
S2: Q 2.04; G 2.12; I 2.21; V 1.84; N 2.58; D 2.51; F 2.87; Y 1.81; W 1.68; E 2.35; H 1.91; C 2.12; K 1.74; R 1.64; P 2.33; L 2.4; A 1.7; T 1.76; M 2.07
H1: F 2.76; A 1.89; R 2.45; W 1.81; N 2.15; L 1.9; M 1.16; V 1.88; G 2.55; Y 2.28; C 1.61; K 2.12; Q 2.32; T 1.82; P 2.37; E 2.4; S 2.33; I 2.21; D 2.31
E4: G 1.71; F 1.37; L 2.76; P 2.22; C 1.9; S 2.52; R 1.6; N 1.95; D 1.91; Q 1.53; K 1.54; I 1.27; V 1.05; A 1.55; T 1.29; H 2.17; M 1.46
G3: I 1.87; A 1.86; E 2.29; M 2.49; R 1.61; V 2; K 1.99; L 1.57; H 1.47; Y 1.88; W 1.86; Q 1.97; S 2.14; C 2.5; F 2.13; P 2.22; D 2.32; N 2.07; T 2.07
